Measurements published in FireProtDB (doi:10.1021/bi00042a027).
Values joined by “and” are separate entries in the source; they are usually repeats but may differ in a detail not shown here. Identical values can stand only once.

B1: Phosphoglycerate kinase, P00560 (parent)
chain: MSLSSKLSVQDLDLKDKRVFIRVDFNVPLDGKKITSNQRIVAALPTIKYVLEHHPRYVVLASHLGRPNGERNEKYSLAPVAKELQSLLGKDVTFLNDCVGPEVEAAVKASAPGSVILLENLRYHIEEEGSRKVDGQKVKASKEDVQKFRHELSSLADVYINDAFGTAHRAHSSMVGFDLPQRAAGFLLEKELKYFGKALENPTRPFLAILGGAKVADKIQLIDNLLDKVDSIIIGGGMAFTFKKVLENTEIGDSIFDKAGAEIVPKLMEKAKAKGVEVVLPVDFIIADAFSADANTKTVTDKEGIPAGWQGLDNGPESRKLFAATVAKAKTIVWNGPPGVFEFEKFAAGTKALLDEVVKSSAAGNTVIIGGGDTATVAKKYGVTDKISHVSTGGGASLELLEGKELPGVAFLSEKK

Variants of: B1
Settings: Saccharomyces cerevisiae (strain ATCC 204508 / S288c), pH 7.5, 25 °C, GdnHCl, Sodium phosphate 20 mM, structure 3PGK, whole UniProt chain shown

| Variant | ddG of mutation (higher = less stable) (CD, transition: 3) | denaturant m value (CD, transition: 3) | denaturant midpoint (higher = more stable) (CD, transition: 3) | unfolding free energy (CD, transition: 3) | denaturant midpoint (higher = more stable) (Fluorescence, transition: 3) | unfolding free energy (Fluorescence, transition: 3) | denaturant m value (Fluorescence) | denaturant midpoint (higher = more stable) (Fluorescence) | unfolding free energy (Fluorescence) | denaturant m value (Fluorescence, transition: 3) | ddG of mutation (higher = less stable) (Fluorescence) | ddG of mutation (higher = less stable) (Fluorescence, transition: 3) | ddG of mutation (higher = less stable) (CD) | denaturant m value (CD) | denaturant midpoint (higher = more stable) (CD) | unfolding free energy (CD) |
| --- | --- | --- | --- | --- | --- | --- | --- | --- | --- | --- | --- | --- | --- | --- | --- | --- |
| F195W | 0.64 kcal/mol | 10.2 kcal/mol/M | 0.53 M | 5.44 kcal/mol | 0.52 M and 0.91 M | 6.3 kcal/mol and 2.68 kcal/mol |  |  |  |  |  |  |  |  |  |  |
| W309Y |  | 10.9 kcal/mol/M and 5.8 kcal/mol/M | 0.62 M and 0.84 M | 6.85 kcal/mol and 4.87 kcal/mol |  |  | 14.8 kcal/mol/M | 0.64 M | 9.42 kcal/mol |  |  |  |  |  |  |  |
| Y49W W334Y |  |  | 0.51 M and 0.91 M | 7.89 kcal/mol and 3.64 kcal/mol | 0.53 M and 0.9 M | 6.85 kcal/mol and 4.45 kcal/mol |  |  |  | 12.9 kcal/mol/M and 5 kcal/mol/M |  |  |  |  |  |  |
| Y49W W309Y |  |  | 0.55 M and 0.96 M | 5.93 kcal/mol and 2.34 kcal/mol | 0.92 M | 4.94 kcal/mol | 12.7 kcal/mol/M | 0.54 M | 6.84 kcal/mol | 5.4 kcal/mol/M | -1.46 kcal/mol | -0.58 kcal/mol |  |  |  |  |
| L400W | 2.68 kcal/mol and 3.31 kcal/mol | 8.1 kcal/mol/M and 5.3 kcal/mol/M | 0.42 M and 0.95 M | 3.4 kcal/mol and 5.06 kcal/mol |  |  | 10.7 kcal/mol/M | 0.39 M | 4.15 kcal/mol |  |  |  |  |  |  |  |
| W334Y |  |  | 0.63 M and 0.82 M |  |  |  | 12.4 kcal/mol/M | 0.62 M | 7.66 kcal/mol |  |  |  |  |  |  |  |
| Y49W | 1.77 kcal/mol and 4.83 kcal/mol |  | 0.41 M and 1.06 M | 4.31 kcal/mol and 3.54 kcal/mol | 0.42 M and 0.92 M | 5.31 kcal/mol and 3.8 kcal/mol |  |  |  |  |  |  |  |  |  |  |
| Y123W | 5.65 kcal/mol | 3.2 kcal/mol/M | 0.86 M | 2.72 kcal/mol | 0.4 M and 0.91 M | 4.81 kcal/mol and 3.45 kcal/mol |  |  |  |  |  | 0.57 kcal/mol and 0.91 kcal/mol | 1.29 kcal/mol | 13.7 kcal/mol/M | 0.42 M | 5.79 kcal/mol |
